# Data as given in the supplement of paper PMC10126150.
# ± gives the standard deviation of the averaged measurements.
# Tested on: ATP
# Assay: switch fluorescence ratio, 500 uM ATP over buffer (Cy3 cluster intensity, sum of 5 cycles each) (fold (ratio)); higher = stronger signal-on switching upon ATP binding; sequences stand for … in TCGTCGGCAGCGTCAGATGTGTATAAGAGACAGTTTTTTTTTTTTTTTTTTTTTTTTT…TC
# Settings: aptamer strand: ATP DNA aptamer (quencher-CACCTGGGGGAGTATTGCGGAGGAAGG + anchor), 100 nM annealed; ATP concentration: 500 uM
# How it was run: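 After annealing to 100 nM quencher-labelled ATP aptamer, Cy3-labelled switching-strand clusters on a modified Illumina MiSeq flow-cell were imaged in selection buffer. A second image followed after 15 min with 500 uM ATP at 22 °C, and five such buffer/ATP cycles were done, each separated by NaOH stripping and re-annealing. The fluorescence ratio, averaged per switch-domain sequence, is summed target-cycle over summed buffer-cycle Cy3 intensity per cluster, with clusters outside 100-1000 RFU excluded.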
# 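Further: ATP exposure 15 min at 22 °C before imaging.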
row,Sequence,switch fluorescence ratio
1,GTGGGGTTTC,0.977 ± 0.032
2,GTGGGTAATT,0.995 ± 0.033
3,GTGGGTAGAG,1 ± 0.057
4,GTGGGTAGTG,0.996 ± 0.038
5,GTGGGTAGTT,0.99 ± 0.076
6,GTGGGTATAC,1.01 ± 0.026
7,GTGGGTCGTT,1 ± 0.031
8,GTGGGTGGTG,1.015 ± 0.0046
9,GTGGGTTCGG,1 ± 0.031
10,GTGGGTTTTT,1.01 ± 0.032
11,GTGGTAATTG,0.972 ± 0.016
12,GTGGTAGAGC,0.991 ± 0.033
13,GTGGTATCAC,1 ± 0.011
14,GTGGTCGGGT,0.974 ± 0.044
15,GTGGTCTGCC,0.958 ± 0.0044
16,GTGGTGCCAA,1.01 ± 0.026
17,GTGGTGGGGG,0.992 ± 0.034
18,GTGGTGTACT,0.985 ± 0.0081
19,GTGGTTCCAA,0.9932 ± 0.0063
20,GTGGTTCTTG,0.99 ± 0.019
21,GTGGTTGTGC,0.97 ± 0.035
22,GTGGTTTAAC,1.04 ± 0.0087
23,GTGGTTTGCT,1.01 ± 0.013
24,GTGGTTTGGA,0.989 ± 0.031
25,GTGGTTTGGG,0.988 ± 0.06

row,Sequence,switch fluorescence ratio
1,GTGGTTTTGG,1 ± 0.035
2,GTGTAAAAGC,1.03 ± 0.011
3,GTGTAAATTT,0.991 ± 0.04
4,GTGTAAGGGG,0.9943 ± 0.0094
5,GTGTAAGTGT,0.9821 ± 0.0046
6,GTGTAATTAG,0.982 ± 0.035
7,GTGTACTGGG,0.993 ± 0.017
8,GTGTACTTAC,1.2 ± 0.022
9,GTGTATCACG,1.015 ± 0.0048
10,GTGTATTTTG,0.996 ± 0.014
11,GTGTCAAAGA,0.984 ± 0.02
12,GTGTCTAGTA,1 ± 0.02
13,GTGTCTGGGA,0.985 ± 0.024
14,GTGTCTTTGA,0.986 ± 0.055
15,GTGTGACGGT,0.949 ± 0.019
16,GTGTGAGCGG,0.9901 ± 0.0052
17,GTGTGAGGTT,0.989 ± 0.019
18,GTGTGAGTGC,1.06 ± 0.024
19,GTGTGATGTT,0.99 ± 0.042
20,GTGTGCACGC,1.05 ± 0.065
21,GTGTGCAGTG,0.954 ± 0.01
22,GTGTGGAAGA,1.019 ± 0.0054
23,GTGTGGGAGG,1.04 ± 0.028
24,GTGTGGGAGT,0.9963 ± 0.0016
25,GTGTGGGATC,1.013 ± 0.0039

row,Sequence,switch fluorescence ratio
1,GTGTGGGCAG,0.973 ± 0.0026
2,GTGTGGGGCC,0.973 ± 0.012
3,GTGTGGGGGA,1.02 ± 0.04
4,GTGTGGGTAT,0.985 ± 0.016
5,GTGTTAGACT,0.9618 ± 0.0092
6,GTGTTAGTCC,1.05 ± 0.11
7,GTGTTATAAT,0.986 ± 0.021
8,GTGTTATATA,0.986 ± 0.013
9,GTGTTATCAC,0.984 ± 0.054
10,GTGTTATCGC,1.011 ± 0.0015
11,GTGTTATGAT,0.9574 ± 0.0068
12,GTGTTATGCA,1.01 ± 0.021
13,GTGTTGAGAA,0.98 ± 0.015
14,GTGTTGATTT,0.9625 ± 0.0065
15,GTGTTGGACC,0.9782 ± 0.00099
16,GTGTTGGGTG,1.01 ± 0.011
17,GTGTTGTATT,0.988 ± 0.015
18,GTGTTTATGG,0.984 ± 0.011
19,GTGTTTGAAA,0.998 ± 0.027
20,GTGTTTGGAA,0.993 ± 0.012
21,GTGTTTGGCG,0.9981 ± 0.0051
22,GTGTTTTATA,0.977 ± 0.026
23,GTGTTTTGTC,1.02 ± 0.068
24,GTTAAAAAAA,0.958 ± 0.021
25,GTTAAAAAGG,0.998 ± 0.022

row,Sequence,switch fluorescence ratio
1,GTTAAATTAG,0.9875 ± 0.0056
2,GTTAAATTCA,1 ± 0.024
3,GTTAACGGAC,1.17 ± 0.098
4,GTTAACTCGG,0.985 ± 0.047
5,GTTAACTCTG,0.9801 ± 0.0084
6,GTTAAGGGCC,0.99 ± 0.011
7,GTTAATATAG,0.992 ± 0.035
8,GTTAATTATT,1.06 ± 0.085
9,GTTAATTTGC,0.984 ± 0.04
10,GTTAATTTTT,1.01 ± 0.043
11,GTTACAAGAC,1.21 ± 0.048
12,GTTACCCAGT,1.049 ± 0.0098
13,GTTACCGGAC,1.5 ± 0.034
14,GTTACCGTTT,1.02 ± 0.053
15,GTTACTGCGG,0.98 ± 0.021
16,GTTAGCGCTT,0.974 ± 0.025
17,GTTAGCGGTT,0.9884 ± 0.0034
18,GTTAGCTAGG,1.04 ± 0.026
19,GTTAGGTTAT,1 ± 0.018
20,GTTAGTAAGG,1.01 ± 0.041
21,GTTAGTACTA,1 ± 0.038
22,GTTAGTGTAG,0.9975 ± 0.0011
23,GTTAGTTAAA,0.968 ± 0.02
24,GTTAGTTACT,1.01 ± 0.057
25,GTTAGTTTGC,1.01 ± 0.021

row,Sequence,switch fluorescence ratio
1,GTTATAACG,1 ± 0.05
2,GTTATATGAC,0.999 ± 0.012
3,GTTATCACTG,1.02 ± 0.014
4,GTTATCAGAT,1.02 ± 0.021
5,GTTATCAGGG,0.995 ± 0.026
6,GTTATCGCTA,1.07 ± 0.04
7,GTTATCTTAG,1.01 ± 0.025
8,GTTATGCGCG,1.03 ± 0.013
9,GTTATGGCTG,1.05 ± 0.021
10,GTTATGGTAC,1.03 ± 0.028
11,GTTATGGTTT,0.986 ± 0.031
12,GTTATGTTGT,1.01 ± 0.04
13,GTTATTATGT,0.994 ± 0.077
14,GTTATTCATG,0.988 ± 0.018
15,GTTATTCCGG,1.038 ± 0.0043
16,GTTATTCTCT,0.971 ± 0.015
17,GTTATTGGGG,1.01 ± 0.024
18,GTTATTTGTT,1.068 ± 0.0071
19,GTTATTTTAA,0.9846 ± 0.0027
20,GTTCAAAAGC,0.98 ± 0.034
21,GTTCAAAGCG,0.999 ± 0.029
22,GTTCACTACC,1.15 ± 0.0083
23,GTTCAGTGAG,0.995 ± 0.01
24,GTTCATCCAG,1.05 ± 0.017
25,GTTCATGGTA,0.99 ± 0.0028

row,Sequence,switch fluorescence ratio
1,GTTCATGGTT,1.01 ± 0.054
2,GTTCCGGCTG,1.02 ± 0.023
3,GTTCCGGGTT,0.983 ± 0.075
4,GTTCCTGCGG,1.075 ± 0.01
5,GTTCCTTAGG,1.01 ± 0.026
6,GTTCGACGGC,1.05 ± 0.095
7,GTTCGGCAGA,1 ± 0.032
8,GTTCGGGGCC,1.01 ± 0.046
9,GTTCGGGGTG,0.978 ± 0.003
10,GTTCGGGTTG,0.988 ± 0.027
11,GTTCGTTAGG,1.017 ± 0.0016
12,GTTCTATCAT,0.961 ± 0.022
13,GTTCTGGGGG,0.984 ± 0.024
14,GTTCTTGGG,0.9835 ± 0.0023
15,GTTCTTGTAT,0.988 ± 0.029
16,GTTCTTTGGG,0.995 ± 0.013
17,GTTCTTTGTG,1 ± 0.012
18,GTTGAAACTT,0.9976 ± 0.004
19,GTTGAAAGCG,1.03 ± 0.015
20,GTTGAAAGTA,0.977 ± 0.039
21,GTTGAAATAA,1 ± 0.047
22,GTTGAAGGAT,1.003 ± 0.0036
23,GTTGAATGAC,1.04 ± 0.0083
24,GTTGAATTAA,0.985 ± 0.041
25,GTTGACAGCT,1 ± 0.015

row,Sequence,switch fluorescence ratio
1,GTTGACAGTG,1 ± 0.062
2,GTTGAGGGTC,0.993 ± 0.021
3,GTTGAGGTCC,1.02 ± 0.041
4,GTTGAGTAGC,1.02 ± 0.042
5,GTTGATAAGG,1.01 ± 0.045
6,GTTGATGTAG,0.984 ± 0.028
7,GTTGATTGGG,0.994 ± 0.029
8,GTTGATTTAT,0.983 ± 0.024
9,GTTGATTTTA,0.972 ± 0.014
10,GTTGCAGCGC,0.982 ± 0.013
11,GTTGCAGGTG,2.06 ± 0.057
12,GTTGCTACCA,1.01 ± 0.053
13,GTTGGAAAGT,0.99 ± 0.022
14,GTTGGAACAG,0.969 ± 0.043
15,GTTGGATAAT,1 ± 0.033
16,GTTGGATATT,0.9976 ± 0.0064
17,GTTGGATCCG,0.984 ± 0.017
18,GTTGGATTTA,1.006 ± 0.0077
19,GTTGGCCCGG,0.997 ± 0.022
20,GTTGGGAGGC,1.064 ± 0.0014
21,GTTGGGCAGC,1.046 ± 0.0053
22,GTTGGGCTTT,0.98 ± 0.025
23,GTTGGGGAAA,0.9985 ± 0.0075
24,GTTGGGGATC,0.991 ± 0.025
25,GTTGGGGCCT,1.03 ± 0.051

row,Sequence,switch fluorescence ratio
1,GTTGGGGGAT,0.986 ± 0.038
2,GTTGGGGGGG,1.01 ± 0.03
3,GTTGGGGGTT,1.01 ± 0.042
4,GTTGGGGTTT,1.01 ± 0.031
5,GTTGGGTGTG,1.02 ± 0.019
6,GTTGGTGTGG,0.9975 ± 0.0086
7,GTTGGTTAGA,0.9776 ± 0.005
8,GTTGGTTGGG,0.975 ± 0.023
9,GTTGGTTGTG,0.981 ± 0.0053
10,GTTGGTTTGG,1.04 ± 0.013
11,GTTGGTTTTG,1.008 ± 0.0057
12,GTTGTAAAGT,1.03 ± 0.036
13,GTTGTAACGT,0.988 ± 0.054
14,GTTGTAAGAT,0.981 ± 0.028
15,GTTGTAAGCA,0.982 ± 0.053
16,GTTGTACGAA,1.19 ± 0.28
17,GTTGTACGAT,0.9971 ± 0.003
18,GTTGTAGCGG,1 ± 0.029
19,GTTGTAGCTG,0.967 ± 0.015
20,GTTGTAGTTA,1.01 ± 0.041
21,GTTGTATGGA,0.995 ± 0.034
22,GTTGTATTAG,0.988 ± 0.025
23,GTTGTCGTTT,0.99104 ± 0.00015
24,GTTGTGAAAG,1 ± 0.035
25,GTTGTGGTAT,0.9785 ± 0.0027
